# Biological target: human type IIA sPLA2 (human) (UniProt P14555)
# Experiment: cell-based or functional assay
# human type IIA sPLA2 (human), sequence (P14555 21-144): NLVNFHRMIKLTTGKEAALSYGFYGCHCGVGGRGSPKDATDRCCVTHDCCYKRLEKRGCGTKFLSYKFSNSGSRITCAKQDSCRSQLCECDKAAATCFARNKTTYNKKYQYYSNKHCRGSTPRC
Substance,IC50 of sPLA2 enzyme inhibition (3H-labelled E. coli membranes as substrate),Mean % Inhibition at fixed peptide concentration [5 µM]
D65S-PIP (59-67) (peptide),5.25 µM,–
D65E-PIP (59-67) (peptide),4.95 µM,–
PIP (59-67) dimer (peptide),1.19 µM,74.5%
D65A-PIP (59-67) (peptide),5.45 µM,–

# Reference: patent US20050069530A1
